Data published in patent publication US20160264649A1.

Experiments:
Test in all cases: cell-based or functional assay
[1] = target: HIV-1 Env of isolate TRJ04551.58 (subtype B) (HIV-1)
[2] = target: HIV-1 Env of isolate MGRM-Chronic-B-004 (subtype B) (HIV-1)
[3] = target: HIV-1 Env of isolate PVO.4 (subtype B) (HIV-1)
[4] = target: HIV-1 Env of isolate 6535.3 (subtype B) (HIV-1)
[5] = target: HIV-1 Env of isolate MGRM-Chronic-B-002 (subtype B) (HIV-1)
[6] = target: HIV-1 Env of isolate MGRM-Chronic-B-024 (subtype B) (HIV-1)
[7] = target: HIV-1 Env of isolate 98IN022 (subtype C) (HIV-1)
[8] = target: HIV-1 Env of isolate 93MW959 (subtype C) (HIV-1)
[9] = target: HIV-1 Env of isolate MGRM-Chronic-B-010 (subtype B) (HIV-1)
[10] = target: HIV-1 Env of isolate MG RM-C-022 (subtype C) (HIV-1)
[11] = target: HIV-1 Env of isolate MGRM-Chronic-B-003 (subtype B) (HIV-1)
[12] = target: HIV-1 Env of isolate NL43 (subtype B) (HIV-1)
[13] = target: HIV-1 Env of isolate SF162 (subtype B) (HIV-1) (UniProt P19550)
[14] = target: HIV-1 Env of isolate JRFL (subtype B) (HIV-1)
[15] = target: HIV-1 Env of isolate 93IN905 (subtype C) (HIV-1)
[16] = target: HIV-1 Env of isolate 93TH305 (subtype B) (HIV-1)
[17] = target: HIV-1 Env of isolate APV_6 (subtype B) (HIV-1)
[18] = target: HIV-1 Env of isolate MGRM-Chronic-B-023 (subtype B) (HIV-1)
[19] = target: HIV-1 Env of isolate THR0.18 (subtype B) (HIV-1)
[20] = target: HIV-1 Env of isolate MGRM-Chronic-B-020 (subtype B) (HIV-1)
[21] = target: HIV-1 Env of isolate MGRM-Chronic-B-017 (subtype B) (HIV-1)
[22] = target: HIV-1 Env of isolate MG RM-C-028 (subtype C) (HIV-1)
[23] = target: HIV-1 Env of isolate APV_13 (subtype B) (HIV-1)
[24] = target: HIV-1 Env of isolate MG RM-C-026 (subtype C) (HIV-1)
[25] = target: HIV-1 Env of isolate MGRM-Chronic-B-018 (subtype B) (HIV-1)
[26] = target: HIV-1 92RW008 Env (HIV-1)
[27] = target: HIV-1 Env of isolate MG RM-C-019 (subtype C) (HIV-1)
[28] = target: HIV-1 Env of isolate MGRM-Chronic-B-008 (subtype B) (HIV-1)
[29] = target: HIV-1 Env of isolate MGRM-Chronic-B-001 (subtype B) (HIV-1)
[30] = target: HIV-1 Env of isolate MGRM-Chronic-B-012 (subtype B) (HIV-1)
[31] = target: HIV-1 Env of isolate MG RM-C-027 (subtype C) (HIV-1)
[32] = target: HIV-1 Env of isolate TRO.11 (subtype B) (HIV-1)
[33] = target: HIV-1 Env of isolate VLGCB3 (subtype B) (HIV-1)
[34] = target: HIV-1 Env of isolate APV_17 (subtype B) (HIV-1)
[35] = target: HIV-1 Env of isolate QH0692.42 (subtype B) (HIV-1)
[36] = target: HIV-1 Env of isolate 92 BR 020 (subtype B) (HIV-1)
[37] = target: HIV-1 Env of isolate MG RM-C-020 (subtype C) (HIV-1)
[38] = target: HIV-1 Env of isolate SC422661.8 (subtype B) (HIV-1)
[39] = target: HIV-1 Env of isolate MGRM-Chronic-B-011 (subtype B) (HIV-1)
[40] = target: HIV-1 Env of isolate 97ZA012 (subtype C) (HIV-1)
[41] = target: HIV-1 Env of isolate JRCSF (subtype B) (HIV-1) (UniProt P20871)
[42] = target: HIV-1 Env of isolate MG RM-C-023 (subtype C) (HIV-1)
[43] = target: HIV-1 Env of isolate CAAN.A2 (subtype B) (HIV-1)
[44] = target: HIV-1 Env of isolate MG RM-C-025 (subtype C) (HIV-1)
[45] = target: HIV-1 Env of isolate MG RM-C-024 (subtype C) (HIV-1)

Sequence of 4995_E20 (PGT-142) (antibody) (VH): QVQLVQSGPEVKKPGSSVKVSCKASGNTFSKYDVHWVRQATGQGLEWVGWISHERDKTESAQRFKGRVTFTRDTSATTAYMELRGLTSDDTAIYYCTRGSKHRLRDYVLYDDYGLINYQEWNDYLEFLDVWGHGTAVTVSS
Sequence of 4995_E20 (PGT-142) (antibody) (VL): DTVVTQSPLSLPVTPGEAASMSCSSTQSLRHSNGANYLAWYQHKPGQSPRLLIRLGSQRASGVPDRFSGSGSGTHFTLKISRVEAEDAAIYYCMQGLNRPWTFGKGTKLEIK
Sequence of 4995_P16 (PGT-145) (antibody) (VH): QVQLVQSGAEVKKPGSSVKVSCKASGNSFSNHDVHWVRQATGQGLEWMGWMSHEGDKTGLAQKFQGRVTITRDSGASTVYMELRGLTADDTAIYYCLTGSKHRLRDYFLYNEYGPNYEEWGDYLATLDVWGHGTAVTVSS
Sequence of 4995_P16 (PGT-145) (antibody) (VL): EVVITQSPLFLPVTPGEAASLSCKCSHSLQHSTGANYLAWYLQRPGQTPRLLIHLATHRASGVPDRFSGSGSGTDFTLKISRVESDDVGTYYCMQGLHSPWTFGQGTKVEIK
Sequence of 4993_K13 (PGT-141) (antibody) (VH): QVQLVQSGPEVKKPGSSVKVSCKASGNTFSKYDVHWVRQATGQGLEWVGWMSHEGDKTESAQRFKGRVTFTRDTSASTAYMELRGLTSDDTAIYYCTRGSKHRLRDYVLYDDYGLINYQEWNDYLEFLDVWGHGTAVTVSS

4993_K13 (PGT-141) (antibody)
IC50 [1]: > 50 µg/mL
IC50 [2]: 0.586 µg/mL
IC50 [3]: 0.113 µg/mL
IC50 [4]: > 50 µg/mL
IC50 [5]: > 50 µg/mL
IC50 [6]: 0.011 µg/mL
IC50 [7]: 0.001 µg/mL
IC50 [8]: 0.003 µg/mL
IC50 [9]: > 50 µg/mL
IC50 [10]: 0.381 µg/mL
IC50 [11]: 0.4 µg/mL
IC50 [12]: > 50 µg/mL
IC50 [13]: > 50 µg/mL
IC50 [14]: > 50 µg/mL
IC50 [15]: 0.001 µg/mL
IC50 [16]: > 50 µg/mL
IC50 [17]: 14.2 µg/mL
IC50 [18]: 0.318 µg/mL
IC50 [19]: 0.007 µg/mL
IC50 [20]: > 50 µg/mL
IC50 [21]: 0.147 µg/mL
IC50 [22]: 13.8 µg/mL
IC50 [23]: > 50 µg/mL
IC50 [24]: > 50 µg/mL
IC50 [25]: 0.572 µg/mL
IC50 [26]: 0.579 µg/mL
IC50 [27]: 0.008 µg/mL
IC50 [28]: > 50 µg/mL
IC50 [29]: > 50 µg/mL
IC50 [30]: > 50 µg/mL
IC50 [31]: 3.27 µg/mL
IC50 [32]: 0.383 µg/mL
IC50 [33]: > 50 µg/mL
IC50 [34]: 0.59 µg/mL
IC50 [35]: > 50 µg/mL
IC50 [36]: 20.3 µg/mL
IC50 [37]: 1.34 µg/mL
IC50 [38]: 1.66 µg/mL
IC50 [39]: 2.24 µg/mL
IC50 [40]: > 50 µg/mL
IC50 [41]: 0.009 µg/mL
IC50 [42]: 0.153 µg/mL
IC50 [43]: > 50 µg/mL
IC50 [44]: 0.247 µg/mL
IC50 [45]: 0.101 µg/mL

4995_E20 (PGT-142) (antibody)
IC50 [1]: > 50 µg/mL
IC50 [2]: 0.172 µg/mL
IC50 [3]: 0.066 µg/mL
IC50 [4]: > 50 µg/mL
IC50 [5]: > 50 µg/mL
IC50 [6]: 0.005 µg/mL
IC50 [7]: 0.001 µg/mL
IC50 [8]: 0.001 µg/mL
IC50 [9]: > 50 µg/mL
IC50 [10]: 0.086 µg/mL
IC50 [11]: 0.484 µg/mL
IC50 [12]: > 50 µg/mL
IC50 [13]: > 50 µg/mL
IC50 [14]: > 50 µg/mL
IC50 [15]: 0.001 µg/mL
IC50 [16]: 5.86 µg/mL
IC50 [17]: 4.72 µg/mL
IC50 [18]: 0.486 µg/mL
IC50 [19]: 0.012 µg/mL
IC50 [20]: > 50 µg/mL
IC50 [21]: 0.076 µg/mL
IC50 [22]: 2.12 µg/mL
IC50 [23]: > 50 µg/mL
IC50 [24]: > 50 µg/mL
IC50 [25]: 0.323 µg/mL
IC50 [26]: 0.447 µg/mL
IC50 [27]: 0.003 µg/mL
IC50 [28]: > 50 µg/mL
IC50 [29]: > 50 µg/mL
IC50 [30]: > 50 µg/mL
IC50 [31]: 0.792 µg/mL
IC50 [32]: 0.27 µg/mL
IC50 [33]: > 50 µg/mL
IC50 [34]: 0.628 µg/mL
IC50 [35]: > 50 µg/mL
IC50 [36]: 15.1 µg/mL
IC50 [37]: 0.446 µg/mL
IC50 [38]: 3.15 µg/mL
IC50 [39]: 0.994 µg/mL
IC50 [40]: > 50 µg/mL
IC50 [41]: 0.01 µg/mL
IC50 [42]: 0.087 µg/mL
IC50 [43]: > 50 µg/mL
IC50 [44]: 0.183 µg/mL
IC50 [45]: 0.03 µg/mL

4995_P16 (PGT-145) (antibody)
IC50 [1]: > 50 µg/mL
IC50 [2]: 0.023 µg/mL
IC50 [3]: 0.299 µg/mL
IC50 [4]: > 50 µg/mL
IC50 [5]: 3.67 µg/mL
IC50 [6]: 0.018 µg/mL
IC50 [7]: 0.005 µg/mL
IC50 [8]: 1.2 µg/mL
IC50 [9]: > 50 µg/mL
IC50 [10]: 0.492 µg/mL
IC50 [11]: 0.045 µg/mL
IC50 [12]: 0.006 µg/mL
IC50 [13]: > 50 µg/mL
IC50 [14]: 30.4 µg/mL
IC50 [15]: 0.002 µg/mL
IC50 [16]: 0.032 µg/mL
IC50 [17]: 0.104 µg/mL
IC50 [18]: 0.009 µg/mL
IC50 [19]: 0.013 µg/mL
IC50 [20]: > 50 µg/mL
IC50 [21]: 0.054 µg/mL
IC50 [22]: 0.099 µg/mL
IC50 [23]: 0.337 µg/mL
IC50 [24]: > 50 µg/mL
IC50 [25]: 0.013 µg/mL
IC50 [26]: 0.4 µg/mL
IC50 [27]: 0.005 µg/mL
IC50 [28]: 1.9 µg/mL
IC50 [29]: 3.22 µg/mL
IC50 [30]: 9.06 µg/mL
IC50 [31]: 0.095 µg/mL
IC50 [32]: 0.044 µg/mL
IC50 [33]: > 50 µg/mL
IC50 [34]: 0.488 µg/mL
IC50 [35]: > 50 µg/mL
IC50 [36]: 1.05 µg/mL
IC50 [37]: 0.712 µg/mL
IC50 [38]: 0.079 µg/mL
IC50 [39]: 0.206 µg/mL
IC50 [40]: 0.915 µg/mL
IC50 [41]: 0.002 µg/mL
IC50 [42]: 0.201 µg/mL
IC50 [43]: 7.08 µg/mL
IC50 [44]: 0.044 µg/mL
IC50 [45]: 0.174 µg/mL
